Reference: the Immune Epitope Database (IEDB)

These sequences were tested against HLA-B*18:01 (assay: IEDB peptide-MHC binding, purified MHC/competitive/radioactivity; ≥ and ≤ were set here for values at or beyond the usual limits of such assays). Conditions: source organism: Homo sapiens.

Sequence | IC50 [nM]
VCGERGFFYT | 626

Each sequence was assayed against HLA-A*01:01 in the same assay as above. Conditions: source organism: Homo sapiens.

Sequence | IC50 [nM]
GSHLVEALY | 30300

These sequences were tested against HLA-A*11:01 in the same assay as above. Conditions: source organism: Homo sapiens.

Sequence | IC50 [nM]
ALYLVCGER | 28300
LVCGERGFFY | 27200
RFKMFPEVK | 18300

These sequences were tested against HLA-B*35:01 in the same assay as above. Conditions: source organism: Homo sapiens.

Sequence | IC50 [nM]
LPLLALLAL | 12300

What follows are sequences tested against HLA-B*07:02 in the same assay as above. Conditions: source organism: Homo sapiens.

Sequence | IC50 [nM]
APVIKARMM | 18300
HPRYFNQLST | 1250
IPSDLERRIL | 3860
LPLLALLAL | 610
WMRLLPLLAL | 2360

The sequences below were run against HLA-A*03:01 in the same assay as above. Conditions: source organism: Homo sapiens.

Sequence | IC50 [nM]
ALYLVCGER | 2790
LVCGERGFFY | 27400

What follows are sequences tested against HLA-B*08:01 in the same assay as above. Conditions: source organism: Homo sapiens.

Sequence | IC50 [nM]
ALWMRLLPL | 107
ALWMRLLPLL | 33
FYTPKTRRE | 13000
GERGFFYT | 1380

These sequences were tested against HLA-B*51:01 in the same assay as above. Conditions: source organism: Homo sapiens.

Sequence | IC50 [nM]
LPLLALLAL | 1160

These sequences were tested against HLA-A*24:02 in the same assay as above. Conditions: source organism: Homo sapiens.

Sequence | IC50 [nM]
ALWGPDPAAAF | 15100
ALWMRLLPLL | 6180
LWMRLLPLL | 545
LYLVCGERGF | 5260
RLLPLLALL | 10200

Each sequence was assayed against HLA-A*02:01 in the same assay as above. Conditions: source organism: Homo sapiens.

Sequence | IC50 [nM]
ALARGAGTVPL | 29
ALGDLFQSI | 76
ALTAVAEEV | 1310
ALWGPDPAAA | 1010
AVAANIVLTV | 575
ELAEYLYNI | 637
FIQVYEVERA | 7020
FLFAVGFYL | 1.1
FLIVLSVAL | 26
FLLSLFSLWL | 16
FLQDVMNIL | 70
FLWSVFMLI | 26
FLWSVFWLI | 55
FMTSSWWRAPL | 84
GLLQVHHSCPL | 5.8
GVFIQVYEV | 460
HIAGSLAVV | 216
HLASEKVYAI | 4060
HLCGSHLVEA | 7540
HLSYHRLLPL | 4260
ILAVDGVLSV | 2.2
ILDKKVEKV | 11200

Sequence | IC50 [nM]
ILKDFSILL | 39
ILMHCQTTL | 478
ILVLASTITI | 675
IQATVMIIV | 9040
KLANIQCLCL | 97
KLQVFLIVL | 1370
KMYAFTLES | 880
KVLHELFGMDI | 11
LASEKVYAI | 6930
LIFDLGGGT | 5420
LLDVAPLSL | 51
LLGRFELIGI | 233
LLHVHHSCPL | 7840
LLIDLTSFL | 8.1
LLLLDVAPL | 10
LLPPLLEHL | 444
LLQEYNWEL | 35
LLQVHHSCPL | 3090
LLSILCIWV | 734
LLSLFSLWL | 152
LMFWSPSHSCA | 143
LMGDKSENV | 7370

Sequence | IC50 [nM]
LNIDLLWSV | 684
LVEALYLVC | 11800
MVWESGCTV | 126
NLAQDLATV | 67
NLLGRFELI | 764
NLLGRFELIGI | 1.8
RLGPVARTRV | 581
RLLPLWAALPL | 5.4
RLLYPDYQI | 124
RLQREWHTL | 1230
RLRPLCCTA | 8230
RMMEYGTTMV | 709
SHLVEALYLV | 2150
SISVLISAL | 1560
SLASLLPHV | 9.1
SLEEEIRFL | 472
SLFEGVDFYT | 51
SLSPLQAEL | 101
SLTAISTTL | 242
SLTTISTTL | 237
SLYHVYEVNL | 209
SMCRFSPLTL | 1150

Sequence | IC50 [nM]
SMPQGTFPV | 631
STVASRLGPV | 25100
STVASWLGPV | 9230
SVASLLPHV | 1760
TIADFWQMV | 4690
TLSSRVCCRT | 2780
TMHSLTIQM | 104
TVASRLGPV | 7700
VAANIVLTV | 320
VIVMLTPLV | 2120
VLHELFGMDI | 287
VLNSVASLL | 1140
VLVEGSTRI | 17200
VMNILLQYV | 2020
VMNILLQYVV | 2310
VVTGVLVYL | 9
WLLPLWAAL | 4.2
WLLPLWAALPL | 3.2
YIPSCTVVGM | 9510
YLLLRVLNI | 57
